Read-outs that look alike come from different tables or passages of the source.
What was measured:
SARS-CoV-2 MA = tested on: SARS-CoV-2 MA; design: species or system BALB/c mice; settings: mouse, in vivo, sc
[1] = for Aes: outside of the directed symptom categories
Experimental: Detailed directed and open-ended symptoms were assessed serially. Because of overlap between symptoms of COVID-19 and potential peginterferon-lambda Aes, symptoms were recorded and Aes were considered any symptom outside of the directed symptom assessment. Laboratory AE severity was graded using the Common Terminology Criteria for Adverse Events (CTCAE) Version 5.0.

[2] = Baseline Viral Load <10E6 copies/mL
[3] = Baseline Viral Load ≥10E6 copies/mL
[4] = n=30, listed as Peginterferon Lambda
[5] = n=30, listed as peginterferon-lambda

B1: pegylated interferon lambda-1a (protein)
chain: MKPTTTGKGCHIGRFKSLSPQELASFKKARDALEESLKLKNWSCSSPVFPGNWDLRLLQVRERPVALEAELALTLKVLEAAAGPALEDVLDQPLHTLHHILSQLQACIQPQPTAGPRPRGRLHHWLHRLQEAPKKESAGCLEASVTFNLFRLLTRDLKYVADGNLSLRTSTHPEST
modifications: PEG
notes: 180 mcg subcutaneous injection
SARS-CoV-2 MA replication in the lung (lung viral titer) (SARS-CoV-2 MA): significantly diminished | viral titer in the nasal turbinates (SARS-CoV-2 MA): did not alter | deaths ([1]; 14 days): No deaths | OR symptom progression vs Placebo, All Symptoms ([1]; All samples): 3.15 | OR symptom progression vs Placebo, Fever Syndrome ([1]; All samples): 1.69 | OR symptom progression vs Placebo, Gastrointestinal ([1]; All samples): 0.48 | OR symptom progression vs Placebo, Mood ([1]; All samples): 0.90 | OR symptom progression vs Placebo, Musculoskeletal ([1]; All samples): 1.80 | OR symptom progression vs Placebo, Neurologic ([1]; All samples): 5.07 | OR symptom progression vs Placebo, Respiratory ([1]; All samples): 4.67 | OR symptom progression vs Placebo, Skin ([1]; All samples): 0.76 | OR symptom progression vs Placebo, All Symptoms [1, 2]: 1.63 | OR symptom progression vs Placebo, Fever Syndrome [1, 2]: 4.83 | OR symptom progression vs Placebo, Gastrointestinal [1, 2]: 0.40 | OR symptom progression vs Placebo, Mood [1, 2]: 0.32 | OR symptom progression vs Placebo, Musculoskeletal [1, 2]: 2.55 | OR symptom progression vs Placebo, Neurologic [1, 2]: 1.60 | OR symptom progression vs Placebo, Respiratory [1, 2]: 3.67 | OR symptom progression vs Placebo, Skin [1, 2]: 0.51 | OR symptom progression vs Placebo, All Symptoms [1, 3]: 2.39 | OR symptom progression vs Placebo, Fever Syndrome [1, 3]: 1.24 | OR symptom progression vs Placebo, Gastrointestinal [1, 3]: 0.58 | OR symptom progression vs Placebo, Mood [1, 3]: 1.29 | OR symptom progression vs Placebo, Musculoskeletal [1, 3]: 1.19 | OR symptom progression vs Placebo, Neurologic [1, 3]: 2.61 | OR symptom progression vs Placebo, Respiratory [1, 3]: 5.88 | OR symptom progression vs Placebo, Skin [1, 3]: 1.90 | Emergency Room visits ([1]; n=30): 1 | Hospital admissions ([1]; n=30): 1 | Lab Abnormalities (grade 3 or 4), Alanine aminotransferase (ALT) ([1]; n=30): 1 | Lab Abnormalities (grade 3 or 4), Aspartate aminotransferase (AST) ([1]; n=30): 1 | Lab Abnormalities (grade 3 or 4), Creatinine ([1]; n=30): 0 | Lab Abnormalities (grade 3 or 4), Hemoglobin ([1]; n=30): 0 | Lab Abnormalities (grade 3 or 4), Lymphocytes ([1]; n=30): 0 | Lab Abnormalities (grade 3 or 4), Neutrophils ([1]; n=30): 0 | Lab Abnormalities (grade 3 or 4), Platelets ([1]; n=30): 0 | Lab Abnormalities (grade 3 or 4), Total bilirubin ([1]; n=30): 0 | Lab Abnormalities (grade 3 or 4), White Blood Cells ([1]; n=30): 0 | Treatment-Related Aes ([1]; n=30): 0 | Treatment-Related SAEs ([1]; n=30): 0 | Severe Symptoms, number of patients ([1]; n=30, 14 days): 7 | Severe Symptoms, reports ([1]; n=30, 14 days): 20 | SAEs [1, 4]: 1 | SAEs [1, 5]: One | Aes [1, 4]: 2 | Aes [1, 5]: two | aminotransferase elevations compared to placebo ([1]; single 180 mcg s.c.): higher rate of transient aminotransferase elevations | tolerability ([1]; single 180 mcg s.c.): well-tolerated with few adverse events

Source: patent US20230201308A1, “TREATMENT OF CORONAVIRUS INFECTION WITH […]” (Eiger Biopharmaceuticals, Inc., priority 2020, published 2023)
